Test results as given in patent US20160139118A1, “NOVEL ASSAY” (GLAXOSMITHKLINE INTELLECTUAL PROPERTY (NO.2) LIMITED, priority 2013, published 2016).

System: CFI
Assay: CFI bioactivity in plasma samples from Alzheimer's disease patients treated with Compound A
Assay type: in vivo, human
Conditions: 6 mg/kg intravenously
Experimental: FIG. 15. CFI bioactivity in samples from Alzheimer's disease patients treated with anti-BAM (Compound A).
3.14. Providing Evidence that an Anti-BAM Antibody can Modulate CFI Bioactivity in Alzheimer's Patients. Finally, a set of human samples from Alzheimer disease patients treated with Compound A were evaluated for CFI bioactivity in a single assay. The assay conditions follow: • 80 μg/ml CFH and C3b. • 0.01-25 nL of plasma (half-log dilutions). • Incubation 2 hours. • Measurement of iC3b via ELISA. • Samples from one patient were run in a single assay. • Each assay was run in singlets. • To control inter-assay variability a common plasma sample was run in each assay.

B1: Compound A: anti-BAM antibody comprising a heavy chain of SEQ ID NO: 10 and a light chain of SEQ ID NO: 11 (antibody)
heavy: EVQLVESGGGLVQPGGSLRLSCAVSGFTFSDNGMAWVRQAPGKGLEWVSFISNLAYSIDYADTVTGRFTISRDNAKNSLYLQMNSLRAEDTAVYYCVSGTWFAYWGQGTLVTVSSASTKGPSVFPLAPSSKSTSGGTAALGCLVKDYFPEPVTVSWNSGALTSGVHTFPAVLQSSGLYSLSSVVTVPSSSLGTQTYICNVNHKPSNTKVDKKVEPKSCDKTHTCPPCPAPELAGAPSVFLFPPKPKDTLMISRTPEVTCVWDVSHEDPEVKFNWYVDGVEVHNAKTKPREEQYNSTYRWSVLTVLHQDWLNGKEYKCKVSNKALPAPIEKTISKAKGQPREPQVYTLPPSRDELTKNQVSLTCLVKGFYPSDIAVEWESNGQPENNYKTTPPVLDSDGSFFLYSKLTVDKSRWQQGNVFSCSVMHEALHNHYTQKSLSLSPGK
light: DIVMTQSPLSLPVTPGEPASISCRVSQSLLHSNGYTYLHWYLQKPGQSPQLLIYKVSNRFSGVPDRFSGSGSGTDFTLKISRVEAEDVGVYYCSQTRHVPYTFGGGTKVEIKRTVAAPSVFIFPPSDEQLKSGTASVVCLLNNFYPREAKVQWKVDNALQSGNSQESVTEQDSKDSTYSLSSTLTLSKADYEKHKVYACEVTHQGLSSPVTKSFNRGEC
modifications: Mature H2 heavy chain amino acid sequence.; Mature Light chain amino acid sequence.
- overall increase of CFI bioactivity (after the second administration): 10%
- overall increase of CFI bioactivity (after the third administration): 28%
